From the supplement of paper PMC7125110
± gives the standard error. Variants at the floor of the assay were thinned out.

B1: glmS ribozyme (parent)
chain: AUAAAAGCGCCAGAACUACAGAAAUGUAGUUGACGAGGAGGAGGUUUAUCGAAUUUUCGGCGGAUGCCUCCAAA

How the values were obtained:
Conditions in all cases: with glucosamine-6-phosphate
glucosamine-6-phosphate [1] = variants of: B1; assay: self-cleavage kobs at 40 uM GlcN6P; higher = faster cleavage; RNA array
In short: (§1)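 Tracking of barcoded ribozyme variants used a hybridised Cy3 probe at 37 °C, after in situ transcription by E. coli RNA polymerase on sequenced MiSeq chips. The flowed solution held 40 μM to 10 mM glucosamine-6-phosphate in HEPES/KCl/Mg(OAc)2 buffer, and imaging ran over ~14 h. kobs was taken from exponential decay fits of normalised per-tile medians, and kcat and KM from weighted Michaelis–Menten fits.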

glucosamine-6-phosphate [2] = variants of: B1; assay: self-cleavage kobs at 640 uM GlcN6P; higher = faster cleavage; RNA array
In short: as §1

glucosamine-6-phosphate [3] = variants of: B1; assay: self-cleavage kobs at 10000 uM GlcN6P; higher = faster cleavage; RNA array
In short: as §1

glucosamine-6-phosphate [4] = variants of: B1; assay: self-cleavage kobs at 160 uM GlcN6P; higher = faster cleavage; RNA array
In short: as §1

glucosamine-6-phosphate [5] = variants of: B1; assay: self-cleavage kobs at 2500 uM GlcN6P; higher = faster cleavage; RNA array
In short: as §1

Variant	self-cleavage kobs at 40 uM GlcN6P (glucosamine-6-phosphate [1])	self-cleavage kobs at 640 uM GlcN6P (glucosamine-6-phosphate [2])	self-cleavage kobs at 10000 uM GlcN6P (glucosamine-6-phosphate [3])	self-cleavage kobs at 160 uM GlcN6P (glucosamine-6-phosphate [4])	self-cleavage kobs at 2500 uM GlcN6P (glucosamine-6-phosphate [5])
AUAAAAGCGCCAGAAUUACAGAAAUGUACUUGACGAAGAGGAGAUUUAUCGAAUUUUCGGCGGAUGCCUCCAAA	< 1e-05 s⁻¹				
AUAAAAGCGCCAGAAUUACAGAAAUGUAGUUGACGAGGAGGAGGUUUAUGGAAUUUUCGGCAGAUGGCUCCAAA	6.99e-05 ± 1.9e-05 s⁻¹	0.000337 ± 7.8e-05 s⁻¹	9.28e-05 ± 1.6e-05 s⁻¹		
AUAAAAGCGCCAGAAUUACAGAAAUGUAGUAGACGAGGAGGAGGUUUAUCGAAUUUUCGGCGGAUGCCUCCAAA	0.000621 ± 7.9e-05 s⁻¹	0.00468 ± 0.00061 s⁻¹	0.0168 ± 0.0026 s⁻¹	0.000862 ± 0.00014 s⁻¹	0.00634 ± 0.0017 s⁻¹
AUAAAAGCGCCAGAAUUACAGAAAUGUAGUUUACGAGGAAGAGGUUUAUCGAAUUUUCGGCGGAUGCCUCGAAA	< 1e-05 s⁻¹		0.0002 ± 2.8e-05 s⁻¹		
AUAAAAGCGCCAGAAUUACAGAAAUGUAGUUGACGAGGAGGAGGUUUAUUGAAUUUUCGGCGGAUGCCUCCAAA	< 1e-05 s⁻¹		0.000106 ± 2e-05 s⁻¹		5.3e-05 ± 1.3e-05 s⁻¹
AUAAAAGCGCCAGAAUUACAGAAAUGUAGUUGACGAGGAAGAGGUUUAUCGAAUUUUCGGCAGAUGCCACCAAA	< 1e-05 s⁻¹				
AUAAAAGCGCCAGAAUUACAGAAAUGUAGUUGACGAGGAAGAGGUUUAUCGAAUUUUCGGCGGAUGCCUCCAAA	0.000204 ± 2e-05 s⁻¹	0.000996 ± 0.00017 s⁻¹	0.00622 ± 0.00083 s⁻¹	0.000448 ± 7e-05 s⁻¹	0.00398 ± 0.00098 s⁻¹
AUAAAAGCGCCAGAAUUACAGAAAUGUAGUCGACGGGGAGCAGGUUUAUCGAAUUUUCGGCGGAUGCCUCCAAA	< 1e-05 s⁻¹		< 1e-05 s⁻¹		< 1e-05 s⁻¹
AUAAAAGCGCCAGAAUUACAGAAAUGUAGUUGACGAGGCGGAGGUUUAUCGAAUUUUCGGCGGAUGCCUCCAAA	0.000107 ± 1.4e-05 s⁻¹		0.00545 ± 0.0006 s⁻¹		0.00222 ± 0.00082 s⁻¹
AUAAAAGCGCCAGAAUUACAGAAAUGUAGGUAACGAGGAGGAGGUUUAUCGAAUUUACGGUGGAUGCCUCCAAA	< 1e-05 s⁻¹				< 1e-05 s⁻¹
AUAAAAGCGCCAGAAUUACAGAAAUGUAGUCGACAAGGAGAAGGUUUAUCGAAUUUUCGGCUGAUGCCUCCAAA	< 1e-05 s⁻¹	< 1e-05 s⁻¹			
AUAAAAGCGCCAGAAUUACAGAAAUGUAGUUGACGAGGAGGAGGUUUUUCGAAUUUUCGGCUGAUGCCUCCAAA	< 1e-05 s⁻¹	< 1e-05 s⁻¹	< 1e-05 s⁻¹		
AUAAAAGCGCCAGAAUUACAGAAAUGUAGAGGACGAGGAGGAGGUUUAUCGAUUUUUCUGCGGAUGCCUCCAAA	< 1e-05 s⁻¹				< 1e-05 s⁻¹
AUAAAAGCGCCAGAAUUACAGAAAUGUAGUUCACGAGCAGGAGGUUUAUCGAAUUUUCGGCGGAUGCCUCCAAA	< 1e-05 s⁻¹				
AUAAAAGCGCCAGAAUUACAGAAAUGUAGUUGACGAGGAGGACGUUUAUCGAAUUUUCGGCGGAUGCCUCCAAA	< 1e-05 s⁻¹		< 1e-05 s⁻¹		
AUAAAAGCGCCAGAAUUACAGAAAUGUAGUUGACGAGGAGGUGGUUUAUCGAAUUUUCGGCAGAUGACUCCAAA	< 1e-05 s⁻¹		< 1e-05 s⁻¹		
AUAAAAGCGCCAGAAUUACAGAAAUGUACUUGACGAGGAGGAGGUUUAUCGAAUUUUCGGCGGAUGCCUCCAAA	0.000447 ± 6.3e-05 s⁻¹	0.00244 ± 0.00032 s⁻¹	0.0179 ± 0.0033 s⁻¹	0.000622 ± 9.5e-05 s⁻¹	0.00422 ± 0.00072 s⁻¹
AUAAAAGCGCCAGAAUUACAGAAAUGUAGUUGACGAGGAGGAGGUUUAUCGAAUUAUCGGCGGAUGCCUCCAAA	0.000484 ± 9.4e-05 s⁻¹	0.00448 ± 0.0011 s⁻¹	0.0273 ± 0.0079 s⁻¹	0.000861 ± 0.00013 s⁻¹	0.00493 ± 0.0012 s⁻¹
AUAAAAGCGCCAGAAUUACAGAAAUGUAGUUGACGAGGAGGAGGUUUAUCGAAUUGUCGGCGGAUGCCUCCAAA	0.000579 ± 9.9e-05 s⁻¹	0.00302 ± 0.00067 s⁻¹	0.0241 ± 0.0047 s⁻¹	0.000979 ± 0.0002 s⁻¹	0.00709 ± 0.0016 s⁻¹
AUAAAAGCGCCAGAAUUACAGAAAUGUAGUUGACGAGAAGGAGGUUUAUCGAAUUUUCGGCGGAUGCCUCCAAA	< 1e-05 s⁻¹	< 1e-05 s⁻¹		< 1e-05 s⁻¹	< 1e-05 s⁻¹
AUAAAAGCGCCAGAAUUACAGAAAUGUAGUUGGCGAGGAGGAGGUUUAUCGAAUUUUCGGCGGAUGCCUCCAAA	< 1e-05 s⁻¹		< 1e-05 s⁻¹		
AUAAAAGCGCCAGAAUUACAGAAAUGUAGUUGAAGAGGAGGAGGUUUAUCGAAUUUUCGGCGGAUGCCUCCAAA	< 1e-05 s⁻¹				
AUAAAAGCGCCAGAAUUACAGAAAUGUAGUUGAAGAGGUGGAGGUUUAUCGUAUUUUCGGCGGAUGCCUACAAA	< 1e-05 s⁻¹	< 1e-05 s⁻¹			
AUAAAAGCGCCAGAAUUACAGAAAUGUAGUUGACGAGGAGAAGGUUUAUCGAAUUUUCUGCGGAUGCCUCCAAA	< 1e-05 s⁻¹	< 1e-05 s⁻¹	< 1e-05 s⁻¹		< 1e-05 s⁻¹
AUAAAAGCGCCAGAAUUACAGAAAUGUAGUUGACGAGGAGGAGGUUUAUCGAAUUUUCGGCGGAUGCCUCGAAA	6.56e-05 ± 7.6e-06 s⁻¹	0.000313 ± 4.5e-05 s⁻¹	0.000726 ± 0.0001 s⁻¹	0.00019 ± 2.6e-05 s⁻¹	0.000215 ± 3.4e-05 s⁻¹
AUAAAAGCGCCAGAAUUACAGAAAUGUAGUUGACGAGGAGGAGGUUUACCGAAUUUUCGGCGGAUGCCUCCAAA	< 1e-05 s⁻¹	< 1e-05 s⁻¹		< 1e-05 s⁻¹	< 1e-05 s⁻¹
